Like-named read-outs stand apart in the source and are kept apart here.
Assays:
[1] = molecular target: T1, human FcγRIIa type R (R131) extracellular domain with C-terminal His tag (human, UniProt P12318 34-217); experiment: SPR (Biacore), antibody captured, FcγR analyte
T1 construct: extracellular domain; also called FcγRIIaR; not shown: His tag at the C terminus
T1 sequence (looked up): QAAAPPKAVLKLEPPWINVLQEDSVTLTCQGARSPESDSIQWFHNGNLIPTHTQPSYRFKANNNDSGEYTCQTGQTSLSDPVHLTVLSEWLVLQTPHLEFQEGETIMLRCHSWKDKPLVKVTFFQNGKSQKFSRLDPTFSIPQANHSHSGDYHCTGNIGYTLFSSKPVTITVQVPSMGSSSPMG

[2] = molecular target: T2, human FcγRIIa type H (H131) extracellular domain with C-terminal His tag (human, UniProt P12318 34-217); experiment: SPR (Biacore), antibody captured, FcγR analyte
T2 construct: extracellular domain; also called FcγRIIaH; not shown: His tag at the C terminus
T2 sequence (looked up): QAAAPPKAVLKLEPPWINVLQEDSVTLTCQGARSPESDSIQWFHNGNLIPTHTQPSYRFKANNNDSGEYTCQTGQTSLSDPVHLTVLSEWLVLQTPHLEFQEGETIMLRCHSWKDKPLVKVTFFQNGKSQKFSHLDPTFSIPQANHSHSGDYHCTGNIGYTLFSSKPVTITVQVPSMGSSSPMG

[3] = molecular target: T3, human FcγRIIb extracellular domain with C-terminal His tag (human, UniProt P31994 43-217); experiment: SPR (Biacore); KD of IL6R-B3/IL6R-L divided by KD of this antibody
T3 construct: extracellular domain; not shown: His tag at the C terminus
T3 sequence (looked up): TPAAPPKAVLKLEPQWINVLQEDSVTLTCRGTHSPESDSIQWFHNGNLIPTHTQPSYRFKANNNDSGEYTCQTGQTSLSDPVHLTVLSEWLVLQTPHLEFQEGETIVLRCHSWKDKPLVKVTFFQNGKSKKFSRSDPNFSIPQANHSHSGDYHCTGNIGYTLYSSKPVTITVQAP

[4] = molecular target: T1, human FcγRIIa type R (R131) …; experiment: as above
[5] = molecular target: T3, human FcγRIIb extracellular domain with …; experiment: SPR (Biacore), antibody captured, FcγR analyte
[6] = molecular target: T1, human FcγRIIa type R (R131) …; experiment: SPR (Biacore), antibody captured, FcγR analyte; remark: listed apart in the source
[7] = molecular target: T4, human FcγRIa extracellular domain with C-terminal His tag (human, UniProt P12314 16-292); experiment: SPR (Biacore), antibody captured, FcγR analyte
T4 construct: not shown: His tag at the C terminus
T4 sequence (P12314 16-292): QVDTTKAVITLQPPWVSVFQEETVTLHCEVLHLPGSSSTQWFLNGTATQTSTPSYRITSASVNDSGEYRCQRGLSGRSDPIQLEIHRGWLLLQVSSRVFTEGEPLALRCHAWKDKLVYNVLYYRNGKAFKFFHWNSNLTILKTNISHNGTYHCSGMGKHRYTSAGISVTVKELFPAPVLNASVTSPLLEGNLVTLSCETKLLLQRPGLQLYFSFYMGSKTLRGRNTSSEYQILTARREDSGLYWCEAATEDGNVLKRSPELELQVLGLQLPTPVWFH

[8] = molecular target: T3, human FcγRIIb extracellular domain with …; experiment: SPR (Biacore); KD for FcγRIIaR divided by KD for FcγRIIb
[9] = molecular target: T5, human FcγRIa extracellular domain with C-terminal His tag (human, UniProt P12314 16-292); experiment: SPR (Biacore)
T5 construct: extracellular domain
T5 sequence (P12314 16-292): as above

[10] = molecular target: T6, human FcγRIIIa type V extracellular domain with C-terminal His tag (human, UniProt P08637 17-208); experiment: SPR (Biacore)
T6 construct: extracellular domain; also called FcγRIIIaV; FcγRIIIa(V)

[11] = molecular target: T7, human FcγRIIb extracellular domain with C-terminal His tag (human, UniProt P31994 43-217); experiment: SPR (Biacore)
T7 construct: extracellular domain
T7 sequence (looked up): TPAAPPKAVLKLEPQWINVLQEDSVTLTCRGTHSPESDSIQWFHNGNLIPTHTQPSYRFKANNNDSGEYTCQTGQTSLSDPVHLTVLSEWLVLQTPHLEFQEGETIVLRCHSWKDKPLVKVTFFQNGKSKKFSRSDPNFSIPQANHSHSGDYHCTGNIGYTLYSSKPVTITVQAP

[12] = molecular target: T8, human FcγRIIa type R extracellular domain with C-terminal His tag (human, UniProt P12318 34-217); experiment: SPR (Biacore)
T8 construct: extracellular domain; also called FcγRIIaR; FcγRIIa(R)
T8 sequence (looked up): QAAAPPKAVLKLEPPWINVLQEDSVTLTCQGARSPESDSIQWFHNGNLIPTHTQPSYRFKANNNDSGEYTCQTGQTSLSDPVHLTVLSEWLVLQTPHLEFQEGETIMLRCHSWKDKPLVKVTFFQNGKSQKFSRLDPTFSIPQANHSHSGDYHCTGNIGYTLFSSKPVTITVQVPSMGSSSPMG

T6 sequence (P08637 17-208 F176V): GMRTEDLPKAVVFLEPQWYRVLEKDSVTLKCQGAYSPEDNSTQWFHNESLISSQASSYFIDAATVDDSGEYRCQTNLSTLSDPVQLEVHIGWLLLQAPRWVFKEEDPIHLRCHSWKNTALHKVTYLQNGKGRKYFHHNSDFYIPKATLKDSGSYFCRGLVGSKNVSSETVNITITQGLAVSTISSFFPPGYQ

B1: IL6R-BP469/IL6R-L (antibody, human IgG1, kappa)
heavy: QVQLQESGPGLVKPSETLSLTCAVSGHSISHDHAWSWVRQPPGEGLEWIGFISYSGITNYNPSLQGRVTISRDNSKNTLYLQMNSLRAEDTAVYYCARSLARTTAMDYWGEGTLVTVSSASTKGPSVFPLAPSSKSTSGGTAALGCLVKDYFPEPVTVSWNSGALTSGVHTFPAVLQSSGLYSLSSVVTVPSSSLGTQTYICNVNHKPSNTKVDKKVEPKSCDKTHTCPPCPAPDLLGDDSVFLFPPKPKDTLMISRTPEVTCVVVDVSDEDGEVKFNWYVDGVEVHNAKTKPREEQDNSTYRVVSVLTVLHQDWLNGKEYKCKVSNKALPRPISKTISKAKGQPREPQVYTLPPSRDELTKNQVSLTCLVKGFYPSDIAVEWESNGQPENNYKTTPPVLDSDGSFFLYSKLTVDKSRWQQGNVFSCSVMHEALHNHYTQESLSLSP
light: not shown
notes: E333S introduced into IL6R-BP230; copies: 2 + 2
[1]
  Kd: 600 nM

B2: IL6R-BP470/IL6R-L (antibody, human IgG1, kappa)
heavy: QVQLQESGPGLVKPSETLSLTCAVSGHSISHDHAWSWVRQPPGEGLEWIGFISYSGITNYNPSLQGRVTISRDNSKNTLYLQMNSLRAEDTAVYYCARSLARTTAMDYWGEGTLVTVSSASTKGPSVFPLAPSSKSTSGGTAALGCLVKDYFPEPVTVSWNSGALTSGVHTFPAVLQSSGLYSLSSVVTVPSSSLGTQTYICNVNHKPSNTKVDKKVEPKSCDKTHTCPPCPAPDLLGDDSVFLFPPKPKDTLMISRTPEVTCVVVDVSDEDGEVKFNWYVDGVEVHNAKTKPREEQDNSTYRVVSVLTVLHQDWLNGKEYKCKVSNKALPRPITKTISKAKGQPREPQVYTLPPSRDELTKNQVSLTCLVKGFYPSDIAVEWESNGQPENNYKTTPPVLDSDGSFFLYSKLTVDKSRWQQGNVFSCSVMHEALHNHYTQESLSLSP
light: not shown
notes: E333T introduced into IL6R-BP230; copies: 2 + 2
[2]
  Kd: 10 µM

B3: IL6R-BP478/IL6R-L (antibody)
heavy: QVQLQESGPGLVKPSETLSLTCAVSGHSISHDHAWSWVRQPPGEGLEWIGFISYSGITNYNPSLQGRVTISRDNSKNTLYLQMNSLRAEDTAVYYCARSLARTTAMDYWGEGTLVTVSSASTKGPSVFPLAPCSRSTSESTAALGCLVKDYFPEPVTVSWNSGALTSGVHTFPAVLQSSGLYSLSSVVTVPSSSLGTKTYTCNVDHKPSNTKVDKRVESKYGPPCPPCPAPDLLGDDSVFLFPPKPKDTLMISRTPEVTCVVVDVSDEDGEVKFNWYVDGVEVHNAKTKPREEQDNSTYRVVSVLTVLHQDWLNGKEYKCKVSNKALPRPIEKTISKAKGQPREPQVYTLPPSRDELTKNQVSLTCLVKGFYPSDIAVEWESNGQPENNYKTTPPVLDSDGSFFLYSKLTVDKSRWQQGNVFSCSVMHEALHNHYTQESLSLSP
light: not shown
notes: copies: 2 + 2
[3]
  KD(IIb) of parent polypeptide/KD(IIb) of altered polypeptide: 161
[4]
  KD(IIaR) of parent polypeptide/KD(IIaR) of altered polypeptide: 2
[5]
  Kd: 19 nM
[6]
  Kd: 540 nM
[7]
  Kd: 7.7 nM
[8]
  KD(IIaR)/KD(IIb): 28

B4: IL6R-BP253/IL6R-L (antibody, human IgG1, kappa)
heavy: QVQLQESGPGLVKPSETLSLTCAVSGHSISHDHAWSWVRQPPGEGLEWIGFISYSGITNYNPSLQGRVTISRDNSKNTLYLQMNSLRAEDTAVYYCARSLARTTAMDYWGEGTLVTVSSASTKGPSVFPLAPSSKSTSGGTAALGCLVKDYFPEPVTVSWNSGALTSGVHTFPAVLQSSGLYSLSSVVTVPSSSLGTQTYICNVNHKPSNTKVDKKVEPKSCDKTHTCPPCPAPELLGGPSVFLFPPKPKDTLMISRTPEVTCVVVDVEHEDPEVKFNWYVDGVEVHNAKTKPREEQYNSTYRVVSVLTVLHQDWLNGKEYKCKVSNKAFPAPIEKTISKAKGQPREPQVYTLPPSRDELTKNQVSLTCLVKGFYPSDIAVEWESNGQPENNYKTTPPVLDSDGSFFLYSKLTVDKSRWQQGNVFSCSVMHEALHNHYTQESLSLSP
light: not shown
notes: Comparison control with existing alterations; copies: 2 + 2
[9]
  Kd: 0.067 nM
[10]
  Kd: 3.6 µM
[11]
  Kd: 11 nM
[12]
  Kd: 2.1 nM

Source: patent publication US20220389118A1 (Chugai, published 2022)
